Test results as given in patent publication US20250188188A1 (DIANTHUS THERAPEUTICS OPCO, published 2025).

T1: active human C1s purified from human serum (CompTech, Tyler, TX, catalog number A104) (human, UniProt P09871 16-437; P09871 438-688)
T1 sequence 1: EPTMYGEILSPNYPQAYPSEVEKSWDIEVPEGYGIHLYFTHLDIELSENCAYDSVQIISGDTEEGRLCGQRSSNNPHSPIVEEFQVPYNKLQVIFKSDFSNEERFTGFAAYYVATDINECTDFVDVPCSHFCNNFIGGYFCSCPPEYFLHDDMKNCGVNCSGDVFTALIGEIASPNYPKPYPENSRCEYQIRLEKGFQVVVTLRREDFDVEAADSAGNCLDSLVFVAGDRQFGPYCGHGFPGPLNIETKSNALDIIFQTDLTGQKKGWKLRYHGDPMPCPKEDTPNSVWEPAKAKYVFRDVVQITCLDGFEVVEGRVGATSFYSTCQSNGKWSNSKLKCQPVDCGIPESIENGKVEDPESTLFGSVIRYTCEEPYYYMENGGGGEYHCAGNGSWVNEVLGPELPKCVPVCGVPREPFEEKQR
T1 sequence 2: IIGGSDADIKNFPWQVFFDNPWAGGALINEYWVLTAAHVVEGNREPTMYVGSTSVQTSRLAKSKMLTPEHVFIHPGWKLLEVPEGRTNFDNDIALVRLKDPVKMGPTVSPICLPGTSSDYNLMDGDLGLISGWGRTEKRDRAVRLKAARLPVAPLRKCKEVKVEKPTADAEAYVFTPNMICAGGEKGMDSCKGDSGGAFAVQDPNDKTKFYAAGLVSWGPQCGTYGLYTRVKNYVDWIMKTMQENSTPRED

B1: MAB2 (US20220380483A1) (antibody, V domains shown)
VH: QVQLVESGGGLVKPGGSLRLSCAASGFTFSDYYMSWIRQAPGKGLEWVSYISRSGSTKYYADSVKGRFTISRDNAKNSLYLQMNSLRAEDTAVYYCARDETDYALDYWGQGTLVTVSS
VL: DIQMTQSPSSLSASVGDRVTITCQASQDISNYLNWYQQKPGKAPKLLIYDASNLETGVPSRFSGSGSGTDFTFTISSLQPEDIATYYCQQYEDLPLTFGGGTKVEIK
B2: MAB3 (antibody, V domains shown)
VH: QVQLVESGGGLVKPGGSLRLSCAASGFTFSDYYMSWIRQAPGKGLEWVSYISRSGSTKYYADSVKGRFTISRDNAKNSLYLQMNSLRAEDTAVYYCARDETDYAFDEWGQGTLVTVSS
VL: DIQMTQSPSSLSASVGDRVTITCQASQDISNYLNWYQQKPGKAPKLLIYDASNLETGVPSRFSGSGSGTDFTFTISSLQPEDIATYYCKQYEDYPLTFGGGTKVEIK
notes: IgG
B3: MAB2 (antibody, V domains shown)
VH: QVQLVESGGGLVKPGGSLRLSCAASGFTFSDYYMSWIRQAPGKGLEWVSYISRSGSTKYYADSVKGRFTISRDNAKNSLYLQMNSLRAEDTAVYYCARDETDYGWDYWGQGTLVTVSS
VL: DIQMTQSPSSLSASVGDRVTITCQASQDISNYLNWYQQKPGKAPKLLIYDASNLETGVPSRFSGSGSGTDFTFTISSLQPEDIATYYCKQYEDYPLTFGGGTKVEIK
notes: IgG
B4: MAB1 (antibody, V domains shown)
VH: QVQLVESGGGLVKPGGSLRLSCAASGFTFSDYYMSWIRQAPGKGLEWVSYISRSGSTKYYADSVKGRFTISRDNAKNSLYLQMNSLRAEDTAVYYCARDQEDYALDYWGQGTLVTVSS
VL: DIQMTQSPSSLSASVGDRVTITCQASQDISNYLNWYQQKPGKAPKLLIYDASNLETGVPSRFSGSGSGTDFTFTISSLQPEDIATYYCEQYEDYPLTFGGGTKVEIK
notes: 191g-derived clone expressed as IgG in 293 cells
B5: MAB7 (antibody, V domains shown)
VH: QVQLVESGGGLVKPGGSLRLSCAASGFTFSDYYMSWIRQAPGKGLEWVSYISRSGSTKYYADSVKGRFTISRDNAKNSLYLQMNSLRAEDTAVYYCARDETDYAYDNWGQGTLVTVSS
VL: DIQMTQSPSSLSASVGDRVTITCQASQDISNYLNWYQQKPGKAPKLLIYDASNLETGVPSRFSGSGSGTDFTFTISSLQPEDIATYYCQQYEDYPLVFGGGTKVEIK
notes: IgG
B6: MAB4 (antibody, V domains shown)
VH: QVQLVESGGGLVKPGGSLRLSCAASGFTFSDYYMSWIRQAPGKGLEWVSYISRSGSTKYYADSVKGRFTISRDNAKNSLYLQMNSLRAEDTAVYYCARDESQYALDYWGQGTLVTVSS
VL: DIQMTQSPSSLSASVGDRVTITCQASQDISNYLNWYQQKPGKAPKLLIYDASNLETGVPSRFSGSGSGTDFTFTISSLQPEDIATYYCHQYEDYPLTFGGGTKVEIK
notes: The IgG4 YTE form is entered separately as IgG4-MAB4
B7: MAB22 (antibody, V domains shown)
VH: EVQLVESGGGVVRPGGSLRLSCAASGFTFDDYGMSWVRQAPGKGLEWVSGINWEGGSTGYADSVKGRFTISRDNAKNSLYLQMNSLRAEDTALYYCARDEQLGGKYYYYYYMDVWGKGTTVTVSS
VL: DIQMTQSPSSLSASVGDRVTITCRASQGIRNDLGWYQQKPGKAPKRLIYTASNLQSGVPSRFSGSGSGTEFTLTISSLQPEDFATYYCLQYRSHPLTFGGGTKVEIK
notes: IgG
B8: MAB24 (antibody, V domains shown)
VH: EVQLVESGGGVVRPGGSLRLSCAASGFTFDDYGMSWVRQAPGKGLEWVSGINWEGGSTGYADSVKGRFTISRDNAKNSLYLQMNSLRAEDTALYYCARDEQLGGTTYYYYYMDVWGKGTTVTVSS
VL: DIQMTQSPSSLSASVGDRVTITCRASQGIRNDLGWYQQKPGKAPKRLIYTASNLQSGVPSRFSGSGSGTEFTLTISSLQPEDFATYYCLQTNIYPLTFGGGTKVEIK
notes: IgG
B9: MAB30 (antibody, V domains shown)
VH: EVQLVESGGGVVRPGGSLRLSCAASGFTFDDYGMSWVRQAPGKGLEWVSGINWEGGSTGYADSVKGRFTISRDNAKNSLYLQMNSLRAEDTALYYCARDEQLGGRHYYYYYMDVWGKGTTVTVSS
VL: DIQMTQSPSSLSASVGDRVTITCRASQGIRNDLGWYQQKPGKAPKRLIYTASNLQSGVPSRFSGSGSGTEFTLTISSLQPEDFATYYCLQYNAYPLIFGGGTKVEIK
notes: IgG
B10: MAB25 (antibody, V domains shown)
VH: EVQLVESGGGVVRPGGSLRLSCAASGFTFDDYGMSWVRQAPGKGLEWVSGINWEGGSTGYADSVKGRFTISRDNAKNSLYLQMNSLRAEDTALYYCARDEQLGGIKYYYYYMDVWGKGTTVTVSS
VL: DIQMTQSPSSLSASVGDRVTITCRASQGIRNDLGWYQQKPGKAPKRLIYTASNLQSGVPSRFSGSGSGTEFTLTISSLQPEDFATYYCLQYKQYPLTFGGGTKVEIK
notes: IgG
B11: MAB26 (antibody, V domains shown)
VH: EVQLVESGGGVVRPGGSLRLSCAASGFTFDDYGMSWVRQAPGKGLEWVSGINWEGGSTGYADSVKGRFSISRDNAKNSLYLQMNSLRAEDTALYYCARDEQLGGLKYYYYYMDVWGKGTTVTVSS
VL: DIQMTQSPSSLSASVGDRVTITCRASQGIRNDLGWYQQKPGKAPKRLIYTASNLQSGVPSRFSGSGSGTEFTLTISSLQPEDFATYYCLQTNIYPLTFGGGTKVEIK
notes: IgG
B12: MAB28 (antibody, V domains shown)
VH: EVQLVESGGGVVRPGGSLRLSCAASGFTFDDYGMSWVRQAPGKGLEWVSGINWEGGSTGYADSVKGRFSISRDNAKNSLYLQMNSLRAEDTALYYCARDEQLGGLKYYYYYMDVWGKGTTVTVSS
VL: DIQMTQSPSSLSASVGDRVTITCRASQGIRNDLGWYQQKPGKAPKRLIYTASNLQSGVPSRFSGSGSGTEFTLTISSLQPEDFATYYCLQYHSYPLRFGGGTKVEIK
notes: IgG
B13: MAB9 (antibody, V domains shown)
VH: QVQLVESGGGLVKPGGSLRLSCAASGFTFSDYYMSWIRQAPGKGLEWVSYISRSGSTKYYADSVKGRFTISRDNAKNSLYLQMNSLRAEDTAVYYCARDENYALDWWGQGTLVTVSS
VL: DIQMTQSPSSLSASVGDRVTITCQASQDISNYLNWYQQKPGKAPKLLIYDASNLETGVPSRFSGSGSGTDFTFTISSLQPEDIATYYCQHYEDYPLTFGGGTKVEIK
notes: The IgG4 YTE form is entered separately as IgG4-MAB9
B14: MAB15 (antibody, V domains shown)
VH: QVQLVQSGAEVKKPGASVKVSCKVSGDTLTELSMHWVRQAPGKGLEWMGTFDPEEGETIYAQKFQGRVTMTEDTSTDTAYMELSSLRSEDTAVYYCVTKGLAWLPYYSWGQGTLVTVSS
VL: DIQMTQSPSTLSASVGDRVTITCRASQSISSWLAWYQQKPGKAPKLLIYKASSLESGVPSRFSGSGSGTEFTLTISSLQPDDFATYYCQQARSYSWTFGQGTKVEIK
notes: IgG

molecular target: T1, active human C1s purified from human …; assay: cell-based or functional assay

For B1, the “IC50 in the RBC lysis assay (FIG. 4C)” value was 61.2 nM.

molecular target: T1, active human C1s purified from human …; assay: SPR, antibody captured via anti-human Fc, C1s in solution

In order of rising Kd:
1. B13  0.306 nM
2. B2  0.932 nM
3. B4  0.95 nM
4. B5  1.22 nM
5. B6  1.22 nM
6. B3  1.83 nM
7. B12  2.89 nM
8. B8  3.49 nM
9. B7  4.17 nM
10. B10  5.57 nM
11. B9  6.01 nM
12. B14  6.39 nM
13. B11  6.52 nM

In order of falling koff:
1. B14  0.000737 s⁻¹
2. B9  0.000688 s⁻¹
3. B10  0.000621 s⁻¹
4. B11  0.00055 s⁻¹
5. B12  0.000409 s⁻¹
6. B7  0.000335 s⁻¹
7. B8  0.000328 s⁻¹
8. B4  0.000255 s⁻¹
9. B6  0.000232 s⁻¹
10. B5  0.000223 s⁻¹
11. B3  0.000215 s⁻¹
12. B2  0.000209 s⁻¹
13. B13  0.000127 s⁻¹

In order of falling kon:
1. B13  414000 M⁻¹ s⁻¹
2. B4  268000 M⁻¹ s⁻¹
3. B2  224000 M⁻¹ s⁻¹
4. B6  190000 M⁻¹ s⁻¹
5. B5  184000 M⁻¹ s⁻¹
6. B12  141000 M⁻¹ s⁻¹
7. B3  118000 M⁻¹ s⁻¹
8. B9  115000 M⁻¹ s⁻¹
9. B14  115000 M⁻¹ s⁻¹
10. B10  111000 M⁻¹ s⁻¹
11. B8  93900 M⁻¹ s⁻¹
12. B11  84500 M⁻¹ s⁻¹
13. B7  80400 M⁻¹ s⁻¹
